Assay results from FireProtDB.
Where “and” joins values, the source holds several entries; their conditions need not be identical. Equal values may be shown once.

Conditions: Aspergillus oryzae (strain ATCC 42149 / RIB 40), whole UniProt chain shown
[1] = pH 1, Thermal, NMR, HCl, KCl 0.15 M, reversible: yes
[2] = pH 1.2, 25 °C, Thermal, Absorbance, glycine-HCl 30 mM, NaCl 0.10 M
[3] = pH 1.6, Thermal, CD, HCl, reversible: yes
[4] = pH 2, 15 °C, GdnHCl, CD, HCl, reversible: yes
[5] = pH 2.08, Thermal, CD, HCl, reversible: yes
[6] = pH 2.2, Thermal, Absorbance, glycine 50 mM
[7] = pH 2.2, Thermal, CD, glycine 50 mM
[8] = pH 2.2, Thermal, Fluorescence, glycine 50 mM
[9] = pH 2.5, Thermal, DSC, glycine 50 mM, NaCl 200 mM, reversible: yes
[10] = pH 4.5, Thermal, DSC, Potassium acetate 50 mM, reversible: no
[11] = pH 4.6, 25 °C, GdnHCl, Absorbance, Sodium acetate 100 mM, reversible: yes
[12] = pH 4.6, 30 °C, GdnHCl, Absorbance, Sodium acetate 100 mM, reversible: yes
[13] = pH 4.6, 35 °C, GdnHCl, Absorbance, Sodium acetate 100 mM, reversible: yes
[14] = pH 4.6, Thermal, Absorbance, Sodium acetate 50 mM
[15] = pH 5, 10 °C, GdnHCl, Fluorescence, Sodium acetate 50 mM
[16] = pH 5, Thermal, Absorbance, Sodium acetate 50 mM, reversible: Yes
[17] = pH 5, Thermal, Absorbance, Sodium acetate 0.10 M, NaCl 0.10 M, reversible: yes
[18] = pH 5, Thermal, Absorbance, sodium acetate 5-20 mM, reversible: yes
[19] = pH 5, Thermal, CD, sodium acetate 5-20 mM, reversible: yes
[20] = pH 5, Thermal, DSC, acetate 50 mM, reversible: no
[21] = pH 5, Thermal, Fluorescence, Sodium acetate 0.05 M, reversible: yes
[22] = pH 5.5, Thermal, Absorbance, MES 50 mM, reversible: yes
[23] = pH 5.5, Thermal, DSC, Potassium acetate 15 mM
[24] = pH 5.5, Thermal, DSC, Potassium acetate 50 mM, reversible: yes
[25] = pH 5.5, Thermal, DSC, acetate 30 mM
[26] = pH 5.5, Thermal, DSC, sodium acetate 10 mM, KCl 100 mM, reversible: yes
[27] = pH 6, Thermal, Absorbance, MES 0.05 M, reversible: no
[28] = pH 6, Thermal, CD, MES 10 mM, KCl 0.1 M
[29] = pH 6, Thermal, DSC, Sodium phosphate 50 mM, NaCl 200 mM, reversible: yes
[30] = pH 6.35, 25 °C, Urea, Absorbance, Glycinamide 0.1 M
[31] = pH 6.8, Thermal, DSC, phosphate 10 mM, reversible: no
[32] = pH 7, 20 °C, GdnHCl, CD, Mops 50 mM
[33] = pH 7, 20 °C, GdnHCl, Fluorescence, Mops 50 mM
[34] = pH 7, 20 °C, GdnHCl, SAXS, Mops 50 mM
[35] = pH 7, Thermal, Absorbance, phosphate 0.03 M
[36] = pH 7, Thermal, CD, MOPS 20 mM, reversible: Yes (>90%)
[37] = pH 7, Thermal, CD, Sodium cacodylate 50 mM, reversible: yes
[38] = pH 7, Thermal, DSC, MES 30 mM, reversible: yes
[39] = pH 7, Thermal, DSC, bis-Tris-HCl 50 mM, reversible: yes
[40] = pH 7, Thermal, Fluorescence, MOPS 30 mM, NaCl 0.1 M, reversible: yes
[41] = pH 7, Thermal, Fluorescence, MOPS 30 mM
[42] = pH 7.05, 25 °C, Urea, Absorbance, Glycinamide 0.1 M
[43] = pH 7.1, Thermal, Absorbance, None, reversible: Yes (>90%)
[44] = pH 7.1, Thermal, CD, None, reversible: Yes (>90%)
[45] = pH 8, 25 °C, GdnHCl, CD, Sodium phosphate 50 mM, NaCl 25 mM, reversible: Yes

B1: Guanyl-specific ribonuclease T1 wild type, P00651 (protein)
chain: MMYSKLLTLTTLLLPTALALPSLVERACDYTCGSNCYSSSDVSTAQAAGYQLHEDGETVGSNSYPHKYNNYEGFDFSVSSPYYEWPILSSGDVYSGGSPGADRVVFNENNQLAGVITHTGASGNNFVECT
Tm [1]: 42.4 °C
heat capacity change of unfolding [1]: 1.79 kcal/mol/K
unfolding enthalpy (van 't Hoff) [1]: 43.2 kcal/mol
heat capacity change of unfolding [2]: 1.47 kcal/mol/K
unfolding enthalpy (van 't Hoff) [2]: 54.8 kcal/mol
unfolding free energy [2]: 1 kcal/mol
Tm [3]: 23 °C
unfolding free energy [3]: 1.72 kcal/mol
Tm (pH 1.9, Thermal, CD, HCl, reversible: yes): 25.8 °C
denaturant midpoint (higher = more stable) [4]: 1.86 M
unfolding free energy [4]: 3.68 kcal/mol
Tm [5]: 28.7 °C
unfolding free energy [5]: 3.16 kcal/mol
Tm [6]: 8.3 °C
unfolding enthalpy (van 't Hoff) [6]: 49 kcal/mol
Tm [7]: 20.2 °C
unfolding enthalpy (van 't Hoff) [7]: 20 kcal/mol
Tm [8]: 9.3 °C
unfolding enthalpy (van 't Hoff) [8]: 24 kcal/mol
Tm [9]: 40 °C
heat capacity change of unfolding [9]: 1.15 kcal/mol/K
unfolding enthalpy (calorimetric) [9]: 85 kcal/mol
Tm (pH 4.4, Thermal, NMR, Unknown): 52.3 °C
unfolding enthalpy (van 't Hoff) (pH 4.4, Thermal, NMR, Unknown): 127 kcal/mol
Tm [10]: 57 °C
unfolding enthalpy (calorimetric) [10]: 106 kcal/mol
denaturant m value [11]: 2.56 kcal/mol/M
denaturant midpoint (higher = more stable) [11]: 2.82 M
unfolding free energy [11]: 7.22 kcal/mol
denaturant m value [12]: 2.65 kcal/mol/M
denaturant midpoint (higher = more stable) [12]: 2.56 M
unfolding free energy [12]: 6.59 kcal/mol
denaturant m value [13]: 2.48 kcal/mol/M
denaturant midpoint (higher = more stable) [13]: 2.25 M
unfolding free energy [13]: 5.6 kcal/mol
Tm [14]: 56.2 °C
unfolding enthalpy (van 't Hoff) [14]: 107 kcal/mol
denaturant m value [15]: 1.84 kcal/mol/M
denaturant midpoint (higher = more stable) [15]: 5.18 M
unfolding free energy [15]: 9.54 kcal/mol
unfolding free energy (pH 5, 25 °C, GdnHCl, CD, Sodium acetate-Acetic acid 0.1 M, reversible: yes): 10.5 kcal/mol
unfolding free energy (pH 5, 25 °C, GdnHCl, DSC, Sodium acetate-Acetic acid 0.1 M, reversible: yes): 11 kcal/mol
unfolding free energy (pH 5, 40 °C, Thermal, Absorbance, Sodium acetate 50 mM, reversible: Yes): 5.06 kcal/mol
Tm [16]: 58 °C
unfolding enthalpy (van 't Hoff) [16]: 104 kcal/mol
Tm (pH 5, Thermal, Absorbance, Sodium acetate 50 mM, reversible: yes): 44.4 °C
Tm [17]: 63.3 °C
unfolding enthalpy (van 't Hoff) [17]: 118 kcal/mol
Tm (pH 5, Thermal, Absorbance, sodium acetate 50 mM, reversible: yes): 61.5 °C
Tm [18]: 58.2 °C
unfolding enthalpy (van 't Hoff) [18]: 102 kcal/mol
Tm (pH 5, Thermal, CD, sodium acetate 50 mM): 53.7 °C
Tm [19]: 64.3 °C
unfolding enthalpy (van 't Hoff) [19]: 90.8 kcal/mol
Tm [20]: 58.9 °C
unfolding enthalpy (calorimetric) [20]: 89.6 kcal/mol
Tm (pH 5, Thermal, Fluorescence, Sodium acetate 0.01 M, reversible: yes (>98%)): 58.8 °C
Tm [21]: 56.7 °C
unfolding enthalpy (van 't Hoff) [21]: 117 kcal/mol
Tm (pH 5, Thermal, Fluorescence, Sodium formate 0.1 M, NaCl 0.25 M, reversible: yes): 59.3 °C
Tm [22]: 58 °C
unfolding enthalpy (van 't Hoff) [22]: 103 kcal/mol
Tm [23]: 62 °C
unfolding enthalpy (calorimetric) [23]: 109 kcal/mol
unfolding enthalpy (van 't Hoff) [23]: 110 kcal/mol
Tm [24]: 60.9 °C
heat capacity change of unfolding [24]: 1 kcal/mol/K
unfolding enthalpy (calorimetric) [24]: 99.1 kcal/mol
Tm [25]: 64 °C
heat capacity change of unfolding [25]: 1.24 kcal/mol/K
unfolding enthalpy (calorimetric) [25]: 116 kcal/mol
Tm [26]: 60.7 °C
unfolding enthalpy (calorimetric) [26]: 107 kcal/mol
unfolding free energy (pH 6, 25 °C, Thermal, CD, MES 10 mM, KCL 0.1 M): 9.3 kcal/mol
Tm [27]: 51.9 °C
unfolding enthalpy (van 't Hoff) [27]: 97.5 kcal/mol
Tm (pH 6, Thermal, Absorbance, Sodium acetate 30 mM, NaCl 0.10 M, reversible: yes): 61.6 °C
Tm [28]: 59.6 °C
unfolding enthalpy (van 't Hoff) [28]: 112 kcal/mol
Tm [29]: 63.7 °C
heat capacity change of unfolding [29]: 1.3 kcal/mol/K
unfolding enthalpy (calorimetric) [29]: 114 kcal/mol
Tm (pH 6, Thermal, DSC, citrate 20 mM, NaCl 55 mM, reversible: yes): 65 °C
Tm (pH 6, Thermal, DSC, phosphate, reversible: yes(>90%)): 63.2 °C
denaturant m value [30]: 1.49 kcal/mol/M
denaturant midpoint (higher = more stable) [30]: 7.16 M
unfolding free energy (pH 6.45, 26 °C, GdnHCl, CD, Sodium phosphate 10 mM, KCl 0.1 M, reversible: yes): 14.4 kcal/mol
Tm [31]: 63.8 °C
unfolding enthalpy (calorimetric) [31]: 114 kcal/mol
unfolding free energy (pH 7, 0 °C, Urea, Fluorescence, MOPS 30 mM, NaCl 0.1 M, reversible: yes): 1.31 kcal/mol
unfolding free energy (pH 7, 2 °C, Urea, Fluorescence, MOPS 30 mM, NaCl 0.1 M, reversible: yes): 1.2 kcal/mol
unfolding free energy (pH 7, 5 °C, Urea, Fluorescence, MOPS 30 mM, NaCl 0.1 M, reversible: yes): 0.85 kcal/mol
denaturant m value [32]: 2.3 kcal/mol/M
denaturant midpoint (higher = more stable) [32]: 2.6 M
denaturant m value [33]: 1.9 kcal/mol/M and 1.8 kcal/mol/M
denaturant midpoint (higher = more stable) [33]: 2.6 M and 2.3 M
denaturant m value [34]: 1.9 kcal/mol/M
denaturant midpoint (higher = more stable) [34]: 2.5 M
unfolding free energy (pH 7, 25 °C, Urea, Fluorescence, MOPS 30 mM, reversible: yes): 5.5 kcal/mol
unfolding enthalpy (van 't Hoff) [35]: 115 kcal/mol and 112 kcal/mol and 104 kcal/mol
unfolding free energy [35]: 8.8 kcal/mol and 8 kcal/mol
Tm [36]: 61.7 °C
unfolding enthalpy (van 't Hoff) [36]: 112 kcal/mol
Tm [37]: 52.5 °C
unfolding enthalpy (van 't Hoff) [37]: 97.7 kcal/mol
Tm [38]: 53.3 °C
heat capacity change of unfolding [38]: 1.6 kcal/mol/K
unfolding enthalpy (calorimetric) [38]: 84.7 kcal/mol
Tm (pH 7, Thermal, DSC, Potassium phosphate 0.1 M): 44.4 °C
Tm [39]: 65.6 °C
unfolding enthalpy (calorimetric) [39]: 110 kcal/mol
Tm [40]: 12.4 °C
heat capacity change of unfolding [40]: 1.59 kcal/mol/K
unfolding enthalpy (van 't Hoff) [40]: 39.9 kcal/mol
Tm [41]: 48.3 °C
unfolding enthalpy (van 't Hoff) [41]: 96 kcal/mol
denaturant m value [42]: 1.45 kcal/mol/M
denaturant midpoint (higher = more stable) [42]: 7.59 M
unfolding free energy [42]: 10.9 kcal/mol and 3.97 kcal/mol
Tm [43]: 62.8 °C
unfolding enthalpy (van 't Hoff) [43]: 66 kcal/mol
Tm [44]: 61.4 °C
unfolding enthalpy (van 't Hoff) [44]: 122 kcal/mol
Tm (pH 7.4, Thermal, CD, PBS): 61.1 °C
unfolding enthalpy (van 't Hoff) (pH 7.4, Thermal, CD, PBS): 105 kcal/mol
unfolding free energy (pH 8, 15 °C, Urea, CD, Tris-HCl 0.1 M, NaCl 2.5 M): 2.61 kcal/mol
denaturant m value [45]: 1.99 kcal/mol/M
denaturant midpoint (higher = more stable) [45]: 3.1 M
Tm (pH 8, Thermal, CD, Sodium phosphate 50 mM, NaCl 25 mM, reversible: Yes): 65.6 °C
denaturant midpoint (higher = more stable) (pH 8.4, 23 °C, GdnHCl, Fluorescence, Tris-HCl 0.1 M): 2.25 M
denaturant midpoint (higher = more stable) (pH 8.4, 23 °C, GdnSCN, Fluorescence, Tris-HCl 0.1 M): 0.75 M
